In one assay the test system is DNA of G4 (GGGT)4. In words: Non-denaturing polyacrylamide gel electrophoresis of G4 DNA binding to proteins. The conditions noted are these: for binding to G4 DNAs (new slower band): protein:DNA 2:1 and 6:1, 100 nM G4 DNA, gel with 75 mM KCl. The protocol: After the culture was incubated until OD reach 0.5, the culture was induced with 0.8 mM IPTG and kept for 4 h at 37° C., followed by protein extraction and purification to obtain the proteins monomer, G4P, triplex, and tetrad. The protein extraction was performed by using Capturem™ His-Tagged Purification Miniprep Kit (TAKARA).
The obtained proteins were mixed with the DNA of G4 at a molar concentration ratio of 2:1 and 6:1, respectively, where the DNA of G4 comprises a sequence of (GGGT)4 (SEQ ID NO: 74), with a concentration of 100 nM. The G4 DNAs binding to the proteins were electrophoresed in a non-denaturing polyacrylamide gel containing 75 mM KCl. […] The G4 DNAs moved slower after binding to the proteins, thereby yielding a new band.

A further assay addresses 2G DNA + 2G RNA. Put plainly: ELISA binding of G4P to immobilized biotinylated oligonucleotide. The following applies: 2/2 DNA/RNA Hybrid G4, Parallel, read-out: Kd (nM) ± SD. The protocol:
(§1) The annealed oligonucleotides were immobilized on a streptavidin-coated plate (Sigma-Aldrich), followed by incubating with G4P or RHAU23 at the indicated concentrations. Detection of bound proteins used an anti-FLAG Mouse Monoclonal Antibody (Transgen Biotech, China), an HRP Conjugated Goat Anti-Mouse IgG (H+L) secondary antibody (Transgen Biotech, China), and a TMB ELISA Substrate (Transgen Biotech, China) according to the manufacturer's instructions. Absorbance was measured at 450 nm on a Multi-Plate Reader (Biotek, USA). Dissociation constants (Kd) were obtained from the binding curves. The standard error of mean values was calculated from three replicates.

Another assay concerns the target 3G DNA + 1G RNA. The assay is described as above. The conditions noted are these: 3/1 DNA/RNA Hybrid G4, Parallel, read-out: Kd (nM) ± SD. The protocol:
as §1

For the next assay, the target named is ABTB2. The assay is described as above. The following applies: G4, GVBQ, read-out: Kd (nM) ± SD. The method, then: as §1
A further assay addresses Bcl2. The description is as above. The following applies: G4, Mixed parallel and antiparallel, read-out: Kd (nM) ± SD. The method, then:
as §1

The target in a further assay is C20orf24. The assay is described as above. The following applies: G4, Mixed parallel and antiparallel, read-out: Kd (nM) ± SD. The protocol: as §1
The next assay has as its target C9orf72. The description is as above. The following applies: G4, Antiparallel, read-out: Kd (nM) ± SD. The method, then: as §1
In the next assay the target is CSTB. The description is as above. The conditions noted are these: G4, Parallel, read-out: Kd (nM) ± SD. The method, then: as §1
Another assay addresses DRD3. Described as above. The conditions noted are these: G4, Antiparallel, read-out: Kd (nM) ± SD. The protocol: as §1
The next assay deals with HRAS1. The assay is described as above. The following applies: G4, Antiparallel, read-out: Kd (nM) ± SD. The method, then: as §1
Another assay has as its target HT. Described as above. The following applies: G4, Mixed parallel and antiparallel, read-out: Kd (nM) ± SD. The method, then:
as §1

A further assay deals with MYOG. The assay is described as above. The following applies: G4, GVBQ, read-out: Kd (nM) ± SD. The protocol:
as §1

The next assay has as its target NRAS RNA. Described as above. The following applies: G4, read-out: Kd (nM) ± SD. The method, then: as §1
In a further assay the target is SPB1. The description is as above. The following applies: G4, Antiparallel, read-out: Kd (nM) ± SD. The method, then: as §1
A further assay deals with T2B-1. The assay is described as above. The following applies: G4, Bulge, Parallel, read-out: Kd (nM) ± SD. The method, then:
as §1

Another assay deals with TBA. The description is as above. The conditions noted are these: G4, Antiparallel, read-out: Kd (nM) ± SD. The protocol:
as §1

The target in another assay is TERRA3G. The description is as above. The conditions noted are these: intermolecular G4, Parallel, read-out: Kd (nM) ± SD. The method, then: as §1
Another assay concerns the target TERRA. The assay is described as above. The conditions noted are these: G4, Parallel, read-out: Kd (nM) ± SD. The method, then:
as §1

The next assay has as its target c-MYC. Described as above. The conditions noted are these: G4, Parallel, read-out: Kd (nM) ± SD. The protocol: as §1
In another assay the target is hTel-3G. The assay is described as above. The following applies: intermolecular G4, Mixed parallel and antiparallel, read-out: Kd (nM) ± SD. The method, then:
as §1

The next assay deals with hTel. Described as above. The following applies: G4, Mixed parallel and antiparallel, read-out: Kd (nM) ± SD. The method, then:
as §1

The target in another assay is G4s. In words: ELISA binding, summary over the 21 G4s. The protocol: as §1
(§2) Therefore, the following were searched for PQSs of the three well-characterized non-canonical G4s, i.e. G4s with one loop of 8-15 nucleotides (4GL15), G-vacancy-bearing G4s (GVBQ), G4 with a bulge (Bulge), respectively. The G4P had no binding to the non-G4 DNAs or RNAs, including single-stranded DNA (ssDNA), RNA hairpin, DNA: RNA heteroduplex, and i-motif.

A further assay deals with non-G4 DNAs or RNAs. Put plainly: ELISA binding, summary over non-G4 controls. The following applies: ssDNA, RNA hairpin, DNA: RNA heteroduplex, i-motif. The protocol:
as §1, §2

The subject of assay [1] is parallel and nonparallel G4s. Put plainly: ELISA comparison of G4 binding affinity between G4P and monomeric RHAU23. The following applies: FIG. 3. The protocol: as §1
A comparison of G4 binding affinity between G4P and a monomeric RHAU23 was further performed. A G4P comprising only one G4-binding domain was termed monomeric RHAU23.

Read-outs that look alike come from different tables or passages of the source.

B1: tetrad: Protein comprising four binding domains RHAU23; amino acid sequence SEQ ID NO: 7 (protein)
chain: MGSSHHHHHHSSGLVPRGSHMHPGHLKGREIGMWYAKKQGQKNKGTGSGAGTGSGAGTGSGAHPGHLKGREIGMWYAKKQGQKNKGTGSGAGTGSGAGTGSGAHPGHLKGREIGMWYAKKQGQKNKGTGSGAGTGSGAGTGSGAHPGHLKGREIGMWYAKKQGQKNKGTGSGADYKDHDGDYKDHDIDYKDDDDK
modifications: Fully synthetic
In the case of B1, the “binding to G4 DNAs (new slower band)” value with DNA of G4 (GGGT)4 is “binding ability”.

B2: G4P: Polypeptide probe: two RHAU23 G4-binding domains, linker of three GTGSGA hexapeptides, C-terminal 3xFLAG tag, N-terminal HIS tag; SEQ ID NO: 4 (protein)
chain: MGSSHHHHHHSSGLVPRGSHMHPGHLKGREIGMWYAKKQGQKNKGTGSGAGTGSGAGTGSGAHPGHLKGREIGMWYAKKQGQKNKGTGSGADYKDHDGDYKDHDIDYKDDDDK
modifications: Fully synthetic
Turning to B2, the equilibrium dissociation constant (Kd) is 0.42 ± 0.06 nM on 2G DNA + 2G RNA; 0.59 ± 0.1 nM on 3G DNA + 1G RNA; 0.59 ± 0.04 nM on ABTB2; 0.9 ± 0.08 nM at Bcl2; 0.35 ± 0.03 nM on C20orf24; 1.89 ± 0.21 nM on C9orf72. For the same molecule, the Kd at CSTB is 0.37 ± 0.03 nM; at DRD3, 0.31 ± 0.03 nM; on HRAS1, 3.11 ± 0.25 nM; on HT, 0.79 ± 0.05 nM; on MYOG, 0.82 ± 0.05 nM; on NRAS RNA it was 0.48 ± 0.03 nM. In addition, the Kd at SPB1 worked out at 2.83 ± 0.15 nM; on T2B-1, 0.34 ± 0.02 nM; on TBA it was 1.71 ± 0.1 nM; on TERRA3G, 0.83 ± 0.05 nM; at TERRA it was 1.44 ± 0.11 nM; at c-MYC, 0.99 ± 0.1 nM. Also, the Kd at hTel-3G is 0.71 ± 0.05 nM; on hTel, 0.37 ± 0.03 nM; at G4s (5 of the 21 G4s, read-out: Kd to 5 G4s), 1 to 3 nM; at G4s (range over the 21 G4s, read-out: Kd values for these G4s) it was 0.31 to 3.11 nM. Besides, the “Kd to 16 G4s” value at G4s (16 of the 21 G4s) was “sub-nM”. Also, the “binding to the non-G4 DNAs or RNAs” value in the assay with non-G4 DNAs or RNAs is “no binding”. Also, the “discrimination between parallel and nonparallel G4s in binding” value in assay [1] is “almost no discrimination between the parallel and nonparallel G4”. Besides, in the assay with DNA of G4 (GGGT)4 (compared among monomer, G4P, triplex, tetrad), the “relative affinity with G4s among the proteins” value is “highest affinity”. Moreover, the “binding to G4 DNAs (new slower band)” value in the assay on DNA of G4 (GGGT)4 is reported as “binding ability”.

B3: triplex: Protein comprising three binding domains RHAU23; amino acid sequence SEQ ID NO: 6 (protein)
chain: MGSSHHHHHHSSGLVPRGSHMHPGHLKGREIGMWYAKKQGQKNKGTGSGAGTGSGAGTGSGAHPGHLKGREIGMWYAKKQGQKNKGTGSGAGTGSGAGTGSGAHPGHLKGREIGMWYAKKQGQKNKGTGSGADYKDHDGDYKDHDIDYKDDDDK
modifications: Fully synthetic
For the molecule B3, in the assay on DNA of G4 (GGGT)4, the “binding to G4 DNAs (new slower band)” value is on record as “binding ability”.

B4: RHAU23: G4P comprising only one G4-binding domain RHAU23; amino acid sequence SEQ ID NO: 5 (protein)
chain: MGSSHHHHHHSSGLVPRGSHMHPGHLKGREIGMWYAKKQGQKNKGTGSGADYKDHDGDYKDHDIDYKDDDDK
modifications: Fully synthetic
For the molecule B4, the “discrimination between parallel and nonparallel G4s in binding” value in assay [1] is reported as “only binds parallel, but not nonparallel G4s”.

Source of the values: patent publication US11767343B2, “Peptide probe for recognition of G-quadruplex and use thereof in detection of G-quadruplex in cell” (Changzhi Medical College, priority 2020, dated 2023).
